From patent US20240262894A1

Columns and labels:
[1] = biological target: pre-fusion F protein DS-Cav1 of RSV A2 strain (respiratory syncytial virus A2 strain); experiment: SPR (Biacore), F protein immobilised on CM5 chip, Fab as analyte
[2] = biological target: post-fusion F protein (FΔFP) of RSV A2 strain (respiratory syncytial virus A2 strain) (UniProt P03420); experiment: as above
[3] = biological target: F protein of RSV B-type clinical isolates (on virus) (respiratory syncytial virus B-type clinical isolates); experiment: cell-based or functional assay

Palivizumab Fab
Kd [1]: 11.4 nM | Kd [2]: 4.4 nM

Palivizumab (antibody)
IC50 (ng/mL), neutralization of RSV B-type clinical isolates on Hep2 cells, flow cytometry [3]: 1410 ng/mL
